Values quoted from earlier work, collected in US8536129B2, “Treatment for anxiety” (NoNO Inc., priority 2007, dated 2013).

Target: N-type calcium channels (Homo sapiens, UniProt Q00975)
Conditions: reported in co-pending application 60/904,507

N-type calcium channels, sequence (Q00975 whole entry): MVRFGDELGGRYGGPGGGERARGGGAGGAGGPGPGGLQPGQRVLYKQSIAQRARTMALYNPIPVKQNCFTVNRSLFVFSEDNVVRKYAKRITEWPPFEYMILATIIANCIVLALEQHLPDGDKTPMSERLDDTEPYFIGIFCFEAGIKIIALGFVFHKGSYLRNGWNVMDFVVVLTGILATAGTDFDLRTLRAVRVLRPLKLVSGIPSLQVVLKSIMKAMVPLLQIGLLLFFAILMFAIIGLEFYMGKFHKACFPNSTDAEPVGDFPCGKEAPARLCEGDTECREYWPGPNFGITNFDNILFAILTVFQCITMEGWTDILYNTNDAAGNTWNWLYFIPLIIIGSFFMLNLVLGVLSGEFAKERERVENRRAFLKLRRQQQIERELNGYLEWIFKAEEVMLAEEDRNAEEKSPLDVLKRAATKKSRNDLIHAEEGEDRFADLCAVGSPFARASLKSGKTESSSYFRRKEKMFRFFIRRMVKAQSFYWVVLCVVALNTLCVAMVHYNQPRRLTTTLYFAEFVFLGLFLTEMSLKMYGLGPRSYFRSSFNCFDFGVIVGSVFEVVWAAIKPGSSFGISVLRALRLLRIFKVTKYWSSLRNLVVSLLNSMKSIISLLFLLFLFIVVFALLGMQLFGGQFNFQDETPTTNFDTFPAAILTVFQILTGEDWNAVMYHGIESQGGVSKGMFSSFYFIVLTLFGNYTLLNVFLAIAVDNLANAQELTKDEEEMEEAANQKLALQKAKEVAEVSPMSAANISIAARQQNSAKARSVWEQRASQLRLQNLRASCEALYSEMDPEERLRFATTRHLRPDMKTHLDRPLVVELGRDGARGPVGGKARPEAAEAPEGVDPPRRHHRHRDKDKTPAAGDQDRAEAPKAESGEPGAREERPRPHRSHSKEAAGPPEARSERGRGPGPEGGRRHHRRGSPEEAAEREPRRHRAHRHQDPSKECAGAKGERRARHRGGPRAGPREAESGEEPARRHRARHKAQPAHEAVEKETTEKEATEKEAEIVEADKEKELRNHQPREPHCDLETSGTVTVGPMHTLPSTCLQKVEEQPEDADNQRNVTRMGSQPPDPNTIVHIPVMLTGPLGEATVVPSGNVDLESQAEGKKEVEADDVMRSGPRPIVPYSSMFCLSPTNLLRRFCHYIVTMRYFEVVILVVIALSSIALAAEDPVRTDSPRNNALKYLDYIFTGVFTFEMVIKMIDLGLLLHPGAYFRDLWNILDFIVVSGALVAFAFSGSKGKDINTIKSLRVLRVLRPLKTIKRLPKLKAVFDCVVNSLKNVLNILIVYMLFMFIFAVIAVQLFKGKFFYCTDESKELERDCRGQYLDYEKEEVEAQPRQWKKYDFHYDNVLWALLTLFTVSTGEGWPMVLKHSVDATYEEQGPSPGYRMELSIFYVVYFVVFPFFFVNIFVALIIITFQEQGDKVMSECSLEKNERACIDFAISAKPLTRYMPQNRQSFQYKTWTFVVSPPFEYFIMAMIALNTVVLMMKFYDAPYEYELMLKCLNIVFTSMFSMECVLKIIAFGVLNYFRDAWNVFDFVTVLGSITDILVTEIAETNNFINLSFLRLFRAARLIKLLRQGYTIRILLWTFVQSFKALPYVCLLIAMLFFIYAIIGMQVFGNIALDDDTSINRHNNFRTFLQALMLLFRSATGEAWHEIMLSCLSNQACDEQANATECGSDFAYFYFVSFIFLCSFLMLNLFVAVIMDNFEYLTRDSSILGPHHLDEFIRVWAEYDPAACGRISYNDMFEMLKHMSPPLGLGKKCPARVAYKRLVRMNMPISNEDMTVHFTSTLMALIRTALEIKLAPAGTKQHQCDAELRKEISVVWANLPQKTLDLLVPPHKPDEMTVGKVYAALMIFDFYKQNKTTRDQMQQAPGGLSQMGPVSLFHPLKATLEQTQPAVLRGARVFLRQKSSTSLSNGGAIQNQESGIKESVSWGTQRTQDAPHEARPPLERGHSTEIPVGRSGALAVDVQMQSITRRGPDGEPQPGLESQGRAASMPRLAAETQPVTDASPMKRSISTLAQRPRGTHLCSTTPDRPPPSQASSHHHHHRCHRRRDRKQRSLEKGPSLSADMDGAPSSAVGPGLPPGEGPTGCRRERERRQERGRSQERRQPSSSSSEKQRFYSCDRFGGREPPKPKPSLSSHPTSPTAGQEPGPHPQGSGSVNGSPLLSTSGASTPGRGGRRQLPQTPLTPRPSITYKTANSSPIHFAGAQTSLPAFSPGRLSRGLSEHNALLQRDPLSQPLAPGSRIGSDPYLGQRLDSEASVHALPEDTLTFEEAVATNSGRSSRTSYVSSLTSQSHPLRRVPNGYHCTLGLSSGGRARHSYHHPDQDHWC

## YGRKKRRQRRR [standard tat peptide]
  binding to and inhibition of N-type calcium channels: binds to and inhibits N-type calcium channels
